We go through 23 molecules from patent WO2009138494A2 (dated 2009).

To fix the notation:
B1: 133-H9 (VHH)
VHH: EVQLVESGGGLVQPGGSLRLSCAASGSIFSINDMGWFRQAPGKEREHVALIRIKDGSIYYADSVKGRFTISRDNAKNTVYLQMNSLKPEDTAVYYCAAKTGTSFVYWGQGTQVTVSS
notes: not shown: C-terminal c-myc tag and (His)6 tag coded by the vector
B2: 133-E12 (VHH)
VHH: B1 VHH with N32S, K76E, K87R, A97G
notes: as for B1
B3: 107-H7 (VHH)
VHH: B1 VHH with K87R, A97G
notes: as for B1
B4: 133-F8 (VHH)
VHH: B1 VHH with I53F, N77S
notes: as for B1
B5: 133-F12 (VHH)
VHH: B1 VHH with I53F, Y106C
notes: as for B1
B6: 107-H8 (VHH)
VHH: EVQLVESGGGLVQAGGSLRLSCVASRGTLNNNPMAMGWFRRAPGKEREFVASIDWSGRSTYYADSVKGRFTISRDNAKNTVWLQINSLEPEDTSVYFCASRREYYTGISIVESDYPYWGQGTQVTVSS
notes: as for B1
B7: 133-H4 (VHH)
VHH: EVQLVKSGGGLVQAGESLRLSCVASGISISTEVMGWYRQAPGKQGESVAIIKTDGSTYYPDSVKGRFAISRDNAKNTVYLQMNSLKLEDTGVYYCVIPGRGPGQGTQVTVSS
notes: as for B1
B8: 133-H5 (VHH)
VHH: B7 VHH with K6E, A24V, E32K, L87V, V96I, P98T, R100W, P102R
notes: as for B1
B9: 132-B5 (VHH)
VHH: EVQLVESGGGLVQAGGSLRLSCVASGLVSSYYGMGWFRQAPGKEREFVASVNWSGKDTYYGDSVKGRFAVSRDSGKNTGFLQMNSLKSEDTAVYYCARRRGGGTGTGNPSEYDYWGQGTQVTVSS
notes: as for B1
B10: 132-B3 (VHH)
VHH: EVQLVESGGGLVQAGGSLRLSCVASGSPFSIGATGWYRQAPGKQRDLVAEIYPSGDTIYADSVKGRSTISRDNAKNTVYLQMNSLKPEDTAVYFCNVVRWGVDYWGQGTQVTVSS
notes: as for B1
B11: 132-D1 (VHH)
VHH: B10 VHH with S27T, P28S, T34A, V48L, D56S, S67F, S84A, F94Y, V97A
notes: as for B1
B12: 132-E5 (VHH)
VHH: EVQLVESGGGLVQAGGSLRLSCVVSGSSFSVGAAGWYRQAPGKQRDLVAEIYPSGSTSYADSVKGRFTISRDNAKNIMYLQMNALKLEDTAVYYCNVVRWGVDYWGQGTQVTVSS
notes: as for B1
B13: 132-B1 (VHH)
VHH: B10 VHH with L85M
notes: as for B1
B14: 132-H4 (VHH)
VHH: EVQLVESGGGLVQAGGSLRLSCVASGTSIMVGAMGWYRQAPGKQRDLVAEIYPSGSTIYEDSVKGRFTISRDNAKNTVYLQMNSLKPEDTAVYYCNVLRWGVDYWGQGTQVTVSS
notes: as for B1
B15: 132-G5 (VHH)
VHH: EVQLVESGGGLVQPGGSLRLSCAASGSILSIHYMGWFRQAPGKQRELVAGIPTGGTTNYADSVKGRFTMSRDNAKNTVDLQMNTMKPEDTAVYYCNAWISSERESRWLNYWGQGTQVTVSS
notes: as for B1
B16: 132-D3 (VHH)
VHH: VQLVESGGGLVQAGGSLRLSCVASGTSFSVGAAGWYRQAPGKQRDLVAEIYPSGSTIYADSVKGRFTISRDNAKNTVYLQMNALKPEDTAVYYCNVVRWGVDYWGQGTQVTVSS
notes: as for B1
B17: 132-F7 (VHH)
VHH: EVQLVESGGGLVQAGGSLRLSCAASGNTFSFNVMGWYRQAPGKQRELVTIIDNGGTTNYADSVKGRFTISRDNAKNTVYLQMNSLKPEDTARYYCHARRGGTLYILGDSNYWGQGTQVTVSS
notes: as for B1
B18: 132-B12 (VHH)
VHH: B17 VHH with F31I, I51M, N53D, G54S, D61G, N83S, Y94F, L103A, I105T
notes: as for B1
B19: 132-G9 (VHH)
VHH: B17 VHH with A14T, S30N, G54S, Y94F, T102S, I105T
notes: as for B1
B20: 132-B8 (VHH)
VHH: B17 VHH with E1A, F31I, E46D, N53D, Y94F, T102N, L103A, I105T, D108E
notes: as for B1
B21: 132-E10 (VHH)
VHH: B17 VHH with F31I, N58S, Y94T, I105T
notes: as for B1
B22: 132-F12 (VHH)
VHH: B17 VHH with K43N, G54S, I69V, T102G, D108E
notes: as for B1
B23: 132-A12 (VHH)
VHH: EVQLVESGGGLVQAGGSLRLSCAASGRNFRRNSMGWYRLTSGKQREMVARISNGGTTVYADSVKGRFTISRDNAKNTVYLQMNSLKFEDTAVYYCNAGDYTDSMYWGQGTQVTVSS
notes: as for B1

Numbering of substitutions follows the chain as printed.

In the first test the target is T1, recombinant human TLR4/MD2 (rhTLR4/MD2), R&D Systems cat no: 3146-TM/CF (human, UniProt O00206 24-631; Q9Y6Y9 17-160, limits assumed).
T1 construct: Bought protein, coated on ELISA plates
T1 sequence (O00206 24-631 limits assumed, chain 1 of 2): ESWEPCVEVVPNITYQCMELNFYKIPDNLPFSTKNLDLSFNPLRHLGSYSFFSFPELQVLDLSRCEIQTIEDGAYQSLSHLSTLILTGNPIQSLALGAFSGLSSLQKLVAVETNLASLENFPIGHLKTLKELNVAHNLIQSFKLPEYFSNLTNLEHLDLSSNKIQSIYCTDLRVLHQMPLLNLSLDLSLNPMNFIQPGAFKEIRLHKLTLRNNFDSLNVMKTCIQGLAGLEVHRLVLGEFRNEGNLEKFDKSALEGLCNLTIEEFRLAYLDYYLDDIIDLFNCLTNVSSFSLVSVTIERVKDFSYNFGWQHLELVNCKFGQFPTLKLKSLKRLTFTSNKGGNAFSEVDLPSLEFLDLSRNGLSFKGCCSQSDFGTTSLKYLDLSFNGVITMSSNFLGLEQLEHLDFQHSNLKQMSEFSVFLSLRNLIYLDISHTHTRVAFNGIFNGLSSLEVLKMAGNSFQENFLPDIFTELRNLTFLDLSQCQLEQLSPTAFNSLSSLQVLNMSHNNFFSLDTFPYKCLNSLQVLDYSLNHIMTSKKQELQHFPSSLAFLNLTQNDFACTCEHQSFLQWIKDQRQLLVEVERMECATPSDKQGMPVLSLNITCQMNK
T1 sequence (Q9Y6Y9 17-160 limits assumed, chain 2 of 2): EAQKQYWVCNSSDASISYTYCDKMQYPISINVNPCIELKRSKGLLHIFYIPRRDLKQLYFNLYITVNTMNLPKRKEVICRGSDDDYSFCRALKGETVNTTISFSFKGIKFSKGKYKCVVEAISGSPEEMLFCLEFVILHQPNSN
Briefly: ELISA: TLR coated at 2 ug/ml, periplasmic extract of the clone, anti-VHH detection, OD against no-Nanobody control. (In an ELISA, binding on a coated surface is turned into a signal by an enzyme label.)
For the molecule B1, the binding result was “binds”.

For B2, the binding result was “binds”.

As to B3, the binding result is “binds”.

In the case of B4, the binding result was “binds”.

In the case of B5, the binding result is given as “binds”.

With B6, the binding result is given as “binds”.

As to B7, the binding result is “binds”.

For B8, the binding result is “binds”.

The target in the next test is T2, recombinant murine TLR3, R&D Systems cat no: 3005-TR (murine, UniProt Q99MB1 26-705, limits assumed).
T2 construct: Bought protein, coated on ELISA plates; also called mTLR3
T2 sequence (Q99MB1 26-705 limits assumed): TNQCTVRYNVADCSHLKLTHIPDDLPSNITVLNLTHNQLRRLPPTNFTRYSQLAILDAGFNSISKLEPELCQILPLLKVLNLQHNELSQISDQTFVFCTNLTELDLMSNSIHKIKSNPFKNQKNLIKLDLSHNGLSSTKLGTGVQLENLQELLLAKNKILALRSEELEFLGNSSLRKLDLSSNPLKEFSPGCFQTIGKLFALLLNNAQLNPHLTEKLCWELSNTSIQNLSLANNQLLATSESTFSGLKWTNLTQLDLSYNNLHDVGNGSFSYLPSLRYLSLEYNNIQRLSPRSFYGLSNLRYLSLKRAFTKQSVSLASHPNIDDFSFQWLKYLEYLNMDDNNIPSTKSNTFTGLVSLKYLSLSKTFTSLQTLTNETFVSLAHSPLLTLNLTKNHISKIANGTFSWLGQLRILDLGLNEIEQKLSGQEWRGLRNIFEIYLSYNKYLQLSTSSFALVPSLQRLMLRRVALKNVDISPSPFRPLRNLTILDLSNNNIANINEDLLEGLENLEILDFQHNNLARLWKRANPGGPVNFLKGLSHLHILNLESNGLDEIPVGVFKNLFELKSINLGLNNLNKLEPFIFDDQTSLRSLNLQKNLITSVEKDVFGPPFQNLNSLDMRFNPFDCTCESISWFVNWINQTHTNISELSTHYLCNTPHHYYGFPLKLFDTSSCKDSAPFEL
The description is as above.
B9: the binding result is “binds”.

As for B10, the binding result is reported as “binds”.

With B11, the binding result is listed as “binds”.

Take B12: the binding result is reported as “binds”.

Take B13: the binding result was “binds”.

In the case of B14, the binding result is on record as “binds”.

As for B15, the binding result was “binds”.

Take B16: the binding result is listed as “binds”.

The next test concerns the target T3, recombinant human TLR3, R&D Systems cat no: 1487-TR (human, UniProt O15455 27-700, limits assumed).
T3 construct: Bought protein, coated on ELISA plates; also called hTLR3
Described as above.
With B17, the binding result is reported as “binds”.

In the case of B18, the binding result is listed as “binds”.

With B19, the binding result is listed as “binds”.

For B20, the binding result is reported as “binds”.

Regarding B21, the binding result is recorded as “binds”.

For B22, the binding result is recorded as “binds”.

For the molecule B23, the binding result is on record as “binds”.
